According to the supplement of paper PMC12042874:
± gives the uncertainty stated by the source.

Test: amyloid nucleation score (Sup35N fusion, yeast selection) (log enrichment); library NNK2; higher = more nucleation; inactive = no reads after selection
How it was run: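 Peptides of 20 random codons fused to Sup35N were expressed in psi-negative yeast, induced 24 hours with 100 μM copper sulfate, then grown 7 days at 30°C on medium lacking adenine and uracil. Input and output plasmid inserts were Illumina-sequenced. Nucleation score is the DiMSum log enrichment of output over input reads, centred on the mode score of non-aggregating sequences, excluding sequences with under 100 input reads. Random libraries had three technical output replicates.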

Substance	amyloid nucleation score
CRSHVAGFDAHTNILLKPIC	-0.346 ± 0.64
GEFLYNT	-0.237 ± 1
LFRWM	3.92 ± 0.06
NNNKI	inactive
VIFYRSFTVS	3.64 ± 0.053
KDGSFSPISL	-0.116 ± 0.35
YYKFTVCWMYYLYQKSRTLL	-1.15 ± 0.78
YLRTFAKYWNPNARQLSIMR	inactive
TCRLRFGCEYGQTFSCVSWA	0.531 ± 0.64
FLNNVVYRHCDSYLTGNCRN	5.151 ± 0.041
HLSYILGVGMFNVHHDNGFF	2.5 ± 0.2
HGLVGESVRSYQTQRQVTMA	0.544 ± 0.4
SAFYKQCEWFFNLMANSLCG	-0.021 ± 0.63
SVQKIEIMYYRRKTGVYEFE	3.4 ± 0.055
IHNWIDSVERTALDMWERNA	1.98 ± 0.14
LFGFLTTRVPWIFSWMVPTA	-0.003 ± 0.44
NRCRNNGQLRGQCICGSVCL	-0.284 ± 0.39
TLVVRGHC	2.14 ± 0.11
QQGYVTLSNFCGRA	-0.292 ± 0.5
VNTPDISGRHVSYFDFFVFY	6.337 ± 0.038
LTRVNWCLPKAGSLKQF	-0.06 ± 0.79
MFGHHKS	-0.5 ± 0.63
ARYMSQVRRTSSHTLNEKI	0.545 ± 0.51
DYLYCSAQFRHMRVQSPGNA	0.885 ± 0.2
LLVAEVV	0.538 ± 0.49

Substance	amyloid nucleation score
GMGQTRKCHAGGNWHVYSCR	0.738 ± 0.47
LFSHL	-1.4 ± 0.54
RVHRLQTEEVMYSSGSK	4.96 ± 0.065
RMNFLA	-0.145 ± 0.5
GRGAAILYMECYAVAEVCTF	0.108 ± 0.26
SLAIAVNAMIHNIPADIWMH	6.27 ± 0.083
YYEYGL	-0.298 ± 0.4
RDDVRRVRPLGSVVQDDSDG	0.882 ± 0.18
STPIHDIFTPTLDRV	-0.08 ± 0.5
CNVDYLSDVYYHVPMQDQSL	0.368 ± 0.48
LAVLGIYDTLLYCHTVLYEI	-0.302 ± 0.36
YHRYAAS	-0.077 ± 0.39
VHCREWEIIRMINLSRKQRV	-0.419 ± 0.46
SGNICIPFY	inactive
FSSNLISPSVEISCVLIWLG	5.67 ± 0.074
VMYMASSLHYTEEPSTSIMT	-0.243 ± 0.27
YSNRLYFVLEAVVYL	1.41 ± 0.32
ALRDFS	0.465 ± 0.8
LADQSYKPAWLFPGSTSVLV	0.078 ± 0.74
VRFTAWICVYRYKEGWWRSL	-0.417 ± 0.24
LCNGGWIIRRADVSGVTNVE	-0.09 ± 0.24
QEVSIKSFLRKYLLCYTMML	-1.05 ± 0.44
IRANGDKSVYM	2.21 ± 0.076
GGNSQMFRLSLGDTKCSGSY	-1.06 ± 1.1
GLTYKSDWSSFRSVYL	-0.771 ± 0.55

Substance	amyloid nucleation score
GGGSG	0.123 ± 1
GTAPSDQRTSSCR	0.989 ± 0.23
AGWNLFLEGVYVW	-0.387 ± 1.1
VGMTTSWMVDPHGGRPGYHS	2.01 ± 0.16
KFGNSCR	-0.428 ± 0.42
EFLRRD	0.055 ± 0.26
VNASD	2.3 ± 0.25
MLNLVATVLWDWSVDCSWQV	1.5 ± 0.11
SYHRS	0.086 ± 0.24
EGRCNYTGHMFCRYLCKHYT	-0.088 ± 1.1
GYLSDMINFVSYCGRLSWSV	inactive
FTGCVYSVFSNQQ	4.76 ± 0.11
YITVSSESAWHYTDQATFDA	-0.129 ± 1.1
VAQAQQQYP	1.08 ± 0.53
DFGYYREIHDEEECSCLKVY	-0.981 ± 0.78
GPLSNLYTKYDANENDGFIL	-0.321 ± 0.41
VYTTDLPFIYVLSVFMFIHG	-0.447 ± 0.27
MRAYFYNKRVISYSLISFPV	-1.45 ± 0.78
FFIIGDCGVLSCPAGGQLWS	7.177 ± 0.037
SDNEEKTCGAFVVLS	-0.719 ± 0.49
RRFLYPVGRGICMENADPFG	1.29 ± 0.44
FFKISQSTTTEQLVYSCYSS	3.02 ± 0.095
TSDWRLYFRLTDVVIGLW	1.86 ± 0.083
DNVGYYNINKDLKFIVGSSH	0.274 ± 1.1
NWIPYVWGWIALIVGSDF	-0.158 ± 0.55

Substance	amyloid nucleation score
LTSSSSSQVWGLYVYDGHLK	-0.045 ± 0.38
DFGREVVVIPLSEV	0.323 ± 0.53
LYVLTNSGPHCLCVGMMHYN	inactive
LLALTFSTETQGRHTKCHSL	4.07 ± 0.094
EDEWMHLVRVQFQGKDRKAA	0.92 ± 0.28
SCMFYYCCTDTYKVPYSDAM	7.759 ± 0.067
MPLLRVVMTLRHKSLFKAEM	-0.272 ± 0.44
INRKGRRI	0.007 ± 0.79
SFGHHPDYRNVMVESYNRMV	0.259 ± 0.23
HYSRD	-0.593 ± 1.1
HIRLRY	-0.101 ± 0.8
AGRLYNISNY	inactive
TNRIGFFLFCTAV	-0.049 ± 0.76
FKFGPMDSIKYMSANFISQC	-0.189 ± 0.64
VHDRLRLGWGAYGYPFGVLM	0.027 ± 1
LLHAVQDHVGLPTVYRRCSR	2.79 ± 0.11
DVVEDF	-0.02 ± 0.49
IDPKEMTGDRQWVSFTVRRR	0.574 ± 0.24
WLIGRNAKSWAWVFLKRSTG	0.392 ± 0.25
VVSWCVEVNPRERAKVDMCR	4.25 ± 0.047
PRKDLPEYSLYSDLEPLVCN	-1.25 ± 0.62
ISSLLFVETELHSVFNLWWM	-0.277 ± 0.44
IIVIRD	0.005 ± 0.36
YSWVGLCPLIGRLYTGFAN	-1.71 ± 0.54
RCVGNYIWIKAFPMCLMTRC	-0.825 ± 1.1

Substance	amyloid nucleation score
LCYSFYPQSVKSFEFPNYFY	inactive
CNSRNMVTGISM	0.034 ± 1.1
RCMGPIVPFDVNS	-0.704 ± 0.33
QTLAYTSDKTS	0.549 ± 0.45
KLTFSCGGLGGNLYVWL	7.999 ± 0.042
FNVEVRV	-0.379 ± 0.45
CLGGTLYLRCFIVDLLWSTG	-0.219 ± 0.55
LLAFFMWSLRQRDSGTLLLD	-0.63 ± 0.52
MVSMFNGYAVLHCPLCIITR	7.11 ± 0.047
TYDLDLVMLRSMRVENLLWG	0.616 ± 0.4
FYESELLSARQFSVYVSLMM	inactive
YYINVDQESGSWMRTSVKGA	0.207 ± 0.41
NADKVQGMRMNRDWYSWCCL	5.323 ± 0.038
VDVVG	0.299 ± 0.65
KLPYVEIPVVLTSLSYLGV	inactive
SPYHKANGHKNVARLYFRWR	0.731 ± 0.41
SPWCPQLSTGGCSNLGSLRR	0.612 ± 0.31
KVLVRHLRCAISPSF	0.256 ± 1
PFPSPSDSGTVAA	0.737 ± 0.54
LVAVVQGFRCVCLDSKLTGV	inactive
IAFKLRSTLSQPRNTCVLWH	0.276 ± 1
GNVSYHSCVW	0.449 ± 0.36
NFNMYGVFCVY	inactive
HSYFRFTPSFLAARSKYLRH	-0.498 ± 1.1
RSYVHYGLLAWCYIRVSWDP	0.428 ± 0.44

Substance	amyloid nucleation score
DSFLKKCSLIRIQVRAVFVL	-1.14 ± 1
HGYRLSHSQPKSTSSLV	-0.083 ± 0.63
LSRSMK	-0.326 ± 0.29
RRKANRVQFLSEYFLVCFVH	inactive
DCFSYSHLRGACNVECLFYP	-0.645 ± 1.1
YNKGPLTGMFYMEGASVNIC	inactive
THLSWQKMWFLIVHALKICL	inactive
KKRLCDTSTIFQINNLHRMM	-1.32 ± 0.76
SLVSKIRLRGAWINSGVKTG	0.923 ± 0.17
KRFIESNIVIQSDLTSLRRK	-0.184 ± 1.1
CNYMPVPRPSMVMSFVSVTV	inactive
QLAYNEDMSVVGFCYIWYYG	6.456 ± 0.048
ADIAWSCRLESNCFPTLSMM	0.255 ± 0.33
LLAVFTSCYCQECYVEPALV	5.55 ± 0.07
CIRAECVKLYL	6.11 ± 0.087
TVNCLGIFSRFLCLNWASWL	3.53 ± 0.15
VRLVMI	0.019 ± 1.1
CDPFYTSLGCSSN	2.85 ± 0.2
CSYVNRLWVDSSVGHEEDAG	inactive
ACCSCIIVFINFTSLFFYRF	-0.178 ± 1.1
SLMLQ	0.706 ± 0.81
FHWYGTVVIYVYLLADVYRC	-0.153 ± 0.36
HAMLRTDILICCITH	9.805 ± 0.065
IDAELLGWFFPEDGFHFSAV	-1.32 ± 1.1
CCCGRMTSVHVDKPDLYLPL	-0.047 ± 1.1

Substance	amyloid nucleation score
FCRETLRTRKAETLGTVNKE	-0.937 ± 0.78
TVLWSRLDPPPRERKL	1.13 ± 0.34
SAVWRHVNDLLLSR	1.11 ± 0.4
LSYSVNWWPRSGWSYYVNEF	-0.176 ± 1.1
RVNFSGIDVVRLFHYCFYMK	-1.51 ± 0.76
TGHRTRVQTELLAFIAQVN	-0.526 ± 0.63
QYIPMSLNCQLQYGSHAGQE	-0.216 ± 0.49
HPFMFKVCSTYFLNYLASCQ	6.78 ± 0.074
WYSSSIGHKMWVTYGSLWGQ	0.505 ± 0.54
RCYPS	0.277 ± 0.17
RSKFLFYIYSGFEIRRKINT	inactive
LSLTNIYGKSIRDERIKTSC	-0.129 ± 0.65
MHDYFLVQ	-0.487 ± 0.42
GVSLFYNWPPSAFKVRYE	-0.611 ± 1
DHFGGCYMSATRSWHDFKMG	inactive
PSGFRSLLFEVHHFSRWAYD	0.691 ± 0.15
LTTPLSRQVCMRFRAFNPEA	-0.655 ± 0.41
VFYNLGVHMWLWWSGIVLVR	0.775 ± 0.74
NLMWTLNLF	8.253 ± 0.058
KAIFSCDARFVRWNAHNREC	inactive
CRWTASAIHARGRVSDRMRD	0.05 ± 0.29
ICCCFIWP	7.044 ± 0.044
